Data reported in patent publication US20260055153A1 (published 2026).

Target: R1-E5
Assay: BLI

- Kd: 43 nM
B1: IL-15Rβ (receptor)
chain: AVNGTSQFTCFYNSRANISCVWSQDGALQDTSCQVHAWPDRRRWNQTCELLPVSQASWACNLILGAPDSQKLTTVDIVTLRVLCREGVRWRVMAIQDFKPFENLRLMAPISLQVVHVETHRCNISWEISQASHYFERHLEFEARTLSPGHTWEEAPLLTLKQKQEWICLETLTPDTQYEFQVRVKPLQGEFTTWSPWSQPLAFRTKPAALGKD
